Source: PMC11236705 (2024)

Experiments:
Experiment in all cases: SPR
GGC_13 = biological target: GGC_13
GGC_5 = biological target: GGC_5
GGC_6 = biological target: GGC_6

B1: ghrelin receptor ICL3-specific antibody (antibody, V domains shown)
VH: EVQLQQSGAELVRPGASVKLSCKASGYTFTDYEMHWVKQTPVHGLEWIGAIDPETGGTVYNQKFKGKATLTADISSTTAYMELRSLTSEDSAVYFCISEDIDESKDYWGQGTTLTVSS
VL: DIVMTQSPSSLAVSAGEKVTLSCKSSQSLFNSRTRKNYLAWYQQKPGLSPTLLIYWASTRKSGVPDRFTGSGSGTDFTLTITSVQAEDLAVYYCKQSYYLRTFGGGTKLEIK
Question: For B1, which Kd (GGC_13) is on record?
Answer: 406 nM

Question: And the Kd (GGC_5)?
Answer: 415 nM

Question: And the Kd (GGC_6)?
Answer: 789 nM
